Test results: patent US20240293316A1, “ENZYME-RESPONSIVE POLYMER PEPTIDE AMPHIPHILES FOR TARGETED DRUG DELIVERY TO TREAT LOCAL AND SYSTEMIC INFLAMMATION” (Ramot at Tel-Aviv University Ltd., priority 2021, published 2024)
Square brackets hold non-standard residues; d marks the D form. Ends that are not written are not given here. * marks the point of attachment. NorAHA = (N-hexanoic acid)-5-norbornene-exo-2,3-dicarboximide, O=C1[C@@H]2[C@H](C(=O)N1CCCCCC(=O)*)[C@H]1C=C[C@@H]2C1

Tests used:
[1] = Properties of the designed random peptide (water solubility, net charge); assay type: physicochemical
Method: A new random peptide sequence was designed by replacing the MMP recognizable amino acid sequence PLGLAG (SEQ ID NO: 16) into GSGSGS (SEQ ID NO: 20).
Following the preparation of peptide functionalized norbornene monomers, an MMP-9 cleavage assay was performed setup, as described in the Materials and Methods section hereinabove.

thermolysin = thermolysin (Bacillus thermoproteolyticus, UniProt P00800); conditions: 1 μM thermolysin:100 μM polymer, 24 hours incubation at 37° C.
Method: Transmission electron microscopy (TEM): Nanoparticles were characterized using a Hitachi HD-2300 STEM. Grids were prepared using a 1% uranyl acetate solution.
The nanoparticle cleavage experiment was performed similarly as described in Materials and Methods section, using a ratio of 1 μM thermolysin:100 μM polymer for 24 hours incubation at 37° C.

[2] = system: diabetic rats following collagen membrane implantation; test: Diabetic rats with implanted collagen membrane, fluorescence imaging of DEX-containing nanoparticles; assay type: in vivo, Female Sprague Dawley rats; conditions: for order of in-vivo fluorescence intensity: 7- and 14-days post injection
Method: (§1) “Diabetic induction” model [Zoabi et al. 2020, supra]: Type 1-like diabetes was induced through a single intraperitoneal injection of streptozotocin, and the induction of hyperglycemia is confirmed by a blood glucose level that is higher than 270 mg/dL at 7 days post injection;
(§2) “Collagen membrane implantation” under scalp of diabetic rats, wherein a para-sagital excisional wound, 10 mm in length, was created in the center of the skin of the calvaria, the periosteum was separated from the skull bone, and a collagen membrane was implanted beneath [Eliezer M, Nemcovsky C, Romanos G, Kozlovsky A, Tal H, Kolerman R, Weinreb M, Moses O. Opposing effects of diabetes and tetracycline on the degradation of collagen membranes in rats. J Periodontol. 2013 April; 84(4):529-34; Tal H, Weinreb M, Shely A, Nemcovsky C E, Moses O. Tetracycline impregnation affects degradation of porcine collagen matrix in healthy and diabetic rats. Clin Oral Investig. 2016 July; 20(6):1237-42; Moses O, Eliezer M, Nemcovsky C, Tal H, Weinreb M. Accelerated degradation of collagen membranes in diabetic rats is associated with increased infiltration of macrophages and blood vessels. Clin Oral Investig. 2016 September; 20(7):1589-96; Eliezer M, Sculean A, Miron R J, Nemcovsky C, Weinberg E, Weinreb M, Zoabi H, Bosshardt D D, Fujioka-Kobayashi M, Moses O. Hyaluronic acid slows down collagen membrane degradation in uncontrolled diabetic rats. J Periodontal Res. 2019 December; 54(6):644-652; and Zoabi H, Nemcovsky C E, Bender O, Moses O, Weinreb M. Accelerated degradation of collagen membranes in type 1 diabetic rats is associated with increased expression and production of several inflammatory molecules. J Periodontol. 2020 October; 91(10):1348-13561.
Type 1-like diabetes was induced as described in the Materials and Methods section, and the induction of hyperglycemia was confirmed by a blood glucose level higher than 270 mg/dL 7 days post injection (see, FIGS. 13A and 13B).
(§3) At day 8, the rats were randomly divided into five groups to receive one single dosage of: i) NPL, ii) NPD, iii) NPR, iv) free DEX, or v) no injection, through a subcutaneous injection posterior to the ear (n=12 for each treatment group and n=3 for the no injection control group). For each treated group, 260 μg of DEX (either free-form or conjugated to the polymer) was used to provide a […] dosage similar to the literature value. Thus, the PPA NPs injection contained 250 μM polymer with 50% (125 μM) Cy 5.5 labeling, for each 200 μL injection.

[3] = system: diabetic rats following collagen membrane implantation; test: Diabetic rats with implanted collagen membrane, histology of residual collagen membrane (HRP-Avidin); assay type: in vivo, Female Sprague Dawley rats
Method: as §1, §2, §3
Two weeks following injection, the rats were sacrificed with carbon dioxide overdose, and the skull together with the over lining periosteum and the membrane were harvested.
The harvested skull together with the over lining periosteum and the membrane were subjected to the following processing: tissues from 10 rats per group were fixed with paraformaldehyde, and processed for decalcified tissue histology, embedded in paraffin. […]

MMP-9 = MMP-9 (Homo sapiens, UniProt P14780); test: MMP-9 cleavage assay of norbornene peptide monomers (HPLC); assay type: biochemical; conditions: 0.5 μM MMP-9: 500 μM NorMMP, 24 hours of incubation at 37° C.
Method: Stock solution of NorMMP peptide (510 μM) was prepared in DPBS buffer. To an Eppendorf tube, 1.5 μL MMP-9 stock (38.46 μM) and […] of NorMMP stock was added, giving a final concentration of 0.5 μM MMP-9: 500 μM NorMMP. The solution was incubated at 37° C. for 24 hours to promote peptide cleavage. To prepare the HPLC sample, 50 μL of the reaction mixture was added to 150 μL of DPBS buffer. 40 μL of resulting solution was injected into HPLC for analysis. For NorMMPL, NorMMPD and the cleavable sequence ([…]), a gradient of 20-60% Buffer B over 30 minutes was used. For the NorMMPR, a gradient of 20-40% Buffer B in 30 minutes was used.
Three test groups, including the norbornenes functionalized with random peptide (NorMMPR), D- and L-MMP peptide (NorMMPD and NorMMPL), and one control group with the cleaved peptide sequence […] were setup.

[4] = single dose, 260 μg of DEX, two weeks following injection

Sequence of MMP-9 (P14780 94-707): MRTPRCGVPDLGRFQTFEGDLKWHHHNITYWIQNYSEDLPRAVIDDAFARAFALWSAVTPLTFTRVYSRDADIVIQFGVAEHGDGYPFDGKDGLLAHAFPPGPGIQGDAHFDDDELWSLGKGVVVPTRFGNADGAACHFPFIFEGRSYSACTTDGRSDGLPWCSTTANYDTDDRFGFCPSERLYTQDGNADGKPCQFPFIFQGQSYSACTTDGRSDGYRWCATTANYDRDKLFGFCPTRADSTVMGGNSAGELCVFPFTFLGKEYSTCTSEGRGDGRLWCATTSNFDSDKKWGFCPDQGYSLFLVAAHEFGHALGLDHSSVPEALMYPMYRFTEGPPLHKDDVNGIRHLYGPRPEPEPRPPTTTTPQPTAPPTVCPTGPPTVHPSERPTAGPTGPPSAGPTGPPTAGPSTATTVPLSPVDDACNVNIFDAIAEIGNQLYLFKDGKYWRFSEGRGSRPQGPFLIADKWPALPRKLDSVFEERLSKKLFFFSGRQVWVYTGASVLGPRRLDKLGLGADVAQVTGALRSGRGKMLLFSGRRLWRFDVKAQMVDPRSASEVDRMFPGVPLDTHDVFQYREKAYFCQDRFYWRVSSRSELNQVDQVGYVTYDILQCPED
Sequence of thermolysin (P00800 233-548, species assumed): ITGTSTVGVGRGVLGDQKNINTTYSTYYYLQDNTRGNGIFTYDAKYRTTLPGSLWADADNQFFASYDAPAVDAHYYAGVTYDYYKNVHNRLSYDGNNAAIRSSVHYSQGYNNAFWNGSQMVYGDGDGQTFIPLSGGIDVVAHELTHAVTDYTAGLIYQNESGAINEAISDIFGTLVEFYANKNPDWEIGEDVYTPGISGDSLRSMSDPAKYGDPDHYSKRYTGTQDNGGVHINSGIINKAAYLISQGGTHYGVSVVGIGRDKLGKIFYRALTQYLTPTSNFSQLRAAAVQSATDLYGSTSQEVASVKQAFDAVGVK

GGSGSGSGWGERDGS-NH2 (C-terminus assumed) [random peptide]
water solubility [1]: good water solubility

MMP peptide: peptide comprising PLGLAG sequence with all L-amino acids (SEQ ID NO: 1), MMP-cleavable (GPLGLAGGERDG-NH2)
net charge ([1]; pH=7): −1

NPD: micellar nanoparticles formed of DEX-containing D-MMP-containing PPA (PPAD) (NorAHA-G[dP][dL]G[dL][dA]GGERDG-NH2; not fully specified; also: grafted via NorAHA into ROMP polynorbornene block copolymer, micellar nanoparticle)
nanoparticle morphology upon thermolysin treatment (TEM) (thermolysin): maintained their nanoparticle morphology | order of in-vivo fluorescence intensity [2]: NPL>NPD>NPR

NPL: micellar nanoparticles formed of DEX-containing L-MMP-containing PPA (PPAL) (NorAHA-GPLGLAGGERDG-NH2; not fully specified; also: micellar nanoparticle of NorDEX20-b-NorMMP5 polynorbornene block copolymer with DEX ester)
nanoparticle morphology upon thermolysin treatment (TEM) (thermolysin): cleavage induced aggregation | order of in-vivo fluorescence intensity [2]: NPL>NPD>NPR | in-vivo fluorescence intensity compared to NPD and NPR controls ([2]; 7- and 14-days post injection (day 14 and day 21)): significantly higher | collagen membrane area, higher than the free dexamethasone group [3, 4]: about 20% | collagen membrane area, higher than the no treatment group [3, 4]: about 40% | remaining collagen membrane area compared to free-form dexamethasone-treated group [3, 4]: significantly larger | voids in the residual collagen membranes compared to free-form dexamethasone and no injection groups ([3]; staining and histology analysis): significantly less voids

NPR: micellar nanoparticles formed of DEX-containing random-peptide PPA (PPAR) (GGSGSGSGWGERDGS)
nanoparticle morphology upon thermolysin treatment (TEM) (thermolysin): maintained their nanoparticle morphology | order of in-vivo fluorescence intensity [2]: NPL>NPD>NPR

NorMMPD: norbornene monomer with D-MMP peptide (SEQ ID NO: 2), D-amino acids in the PLGLAG portion (NorAHA-G[dP][dL]G[dL][dA]GGERDG-NH2; not fully specified)
cleavage by MMP-9 (HPLC traces) (MMP-9): remained intact

NorMMPL: norbornene monomer functionalized with L-MMP peptide (SEQ ID NO: 1), MMP-cleavable (NorAHA-GPLGLAGGERDG-NH2; SMILES CC(C)C[C@H](NC(=O)CNC(=O)[C@H](CC(C)C)NC(=O)[C@@H]1CCCN1C(=O)CNC(=O)CCCCCN1C(=O)[C@@H]2[C@H](C1=O)[C@H]1C=C[C@@H]2C1)C(=O)N[C@@H](C)C(=O)NCC(=O)NCC(=O)N[C@@H](CCC(=O)O)C(=O)N[C@@H](CCCNC(=N)N)C(=O)N[C@@H](CC(=O)O)C(=O)NCC(N)=O)
cleavage by MMP-9 (HPLC traces) (MMP-9): completely cleaved

NorMMPR: norbornene monomer with R-MMP random peptide (SEQ ID NO: 17) (NorAHA-GGSGSGSGWGERDGS-NH2; not fully specified)
cleavage by MMP-9 (HPLC traces) (MMP-9): remained intact
